# Where two headings read alike, the source gives them in different places.
# Legend:
# Test in all cases: ELISA
# CTLA-4 [1] = target: CTLA-4
# PD-1 [2] = target: PD-1
# CTLA-4 [3] = target: CTLA-4; remark: listed apart in the source
# PD-1 [4] = target: PD-1; remark: listed apart in the source
CLTA-4 Relative Binding (CTLA-4 [1]),PD-1 Relative Binding (PD-1 [2]),CLTA-4 Relative Binding (CTLA-4 [3]),PD-1 Relative Binding (PD-1 [4]),Substance
0.008,1.77,–,–,PD-L2 domain only plus Fc construct (Fc fusion)
1.65,3.37,0.266,0.088,"PD-L2/B7.1 Dual Checkpoint (dual checkpoint inhibitor composition comprising, from the N-terminus to the C-terminus, a PD-L2 domain linked to a B7.1 domain plus a Fc domain) (Fc fusion)"
3.26,0.004,0.236,0,B7.1 domain only plus Fc construct (Fc fusion)
–,–,0.548,0,B7.1/PD-L2 composition (a B7.1 domain linked to a PD-L2 domain plus an Fc domain) (Fc fusion)

# — patent US20250197473A1
